Laboratory results from the DeepSol protein solubility set.

Assay: soluble on expression in E. coli; label from the status in PepcDB or PDB records

Question: Which “soluble on expression in E. coli” value does the source give for “MSSMEGKKVPQVTFRTRQGDKWVDVTTSELFDNKTVIVFSLPGAFTPTCSSSHLPRYNELAPVFKKYGVDDILVVSVNDTFVMNAWKEDEKSENISFIPDGNGEFTEGMGMLVGKEDLGFGKRSWRYSMLVKNGVVEKMFIEPNEPGDPFKVSDADTMLKYLAPQHQVQESISIFTKPGCPFCAKAKQLLHDKGLSFEEIILGHDATIVSVRAVSGRTTVPQVFIGGKHIGGSDDLEKYFA” here?
Answer: Its value is “soluble”.

Question: Which “soluble on expression in E. coli” value does the source give for “MPYVDRQNRICGFLDIEDNENSGKFLRRYFILDTQANCLLWYMDNPQNLAVGAGAVGSLQLTYISKVSIATPKQKPKTPFCFVINALSQRYFLQANDQKDLKDWVEALNQASKITVPKAGTVPLATEVLKNLTAPPTLEKKPQVAYKTEIIGGVVVQTPISQNGGDGQEGCEPGTHAFLRRSQSYIPTSGCRPSTGPPLIKSGYCVKQGNVRKSWKRRFFALDDFTICYFKCEQDREPLRTIPLKDVLKTHECLVKSGDLLMRDNLFEIITTSRTFYVQADSPEDMHSWIEGIGAAVQALKCHPREPSFSRSISLTRPGSSTLTSAPNSILSRRRPPAEEKRGLCKAPSVASSWQPWTPVPQAEEKPLSVEHAPEDSLFMPNPGESTATGVLASSRVRHRSEPQHPKEKPFVFNLDDENIRTSDV” here?
Answer: The value was “soluble”.

Question: For “MSLNKNEKVKIAYVGIGNRGQQIIEDFARTGMVEVVALCDVDMGAKHTQKVIGMYPKAKQFRDFRQMFDKAGKEFDAVAIATPDHSHFPISMLALASGKHVYVEKPLARTFYEAELLMQAALKRPNLATQVGNQGHSEANYFQFKAWMDAGIIKDVTAVTAHMNNEGHHHHHH”, which “soluble on expression in E. coli” value is on record?
Answer: The value was “not soluble”.

Question: With “MRREIRRICGFDVSDRWINLFRKKHGIRYFSGRRHADKKDKTIILSALDVTKMKTTNFLKKRRILRTSRKEYADVDLQVNKEIVRRQNKGERLTNPWIKEYAQYVAYQLHPEIPDIAKFFDANWLYRFKRRYCVELKVALNDFLYDLNSIFQPRSPEENTRSTPQTTSNEDIKSSATSMEVVTSPNYLFPHHYFNLFDQNGCGASIVKQEPTREN” as the sequence, how does the “soluble on expression in E. coli” value read?
Answer: The value was “not soluble”.

Question: For “MSLTKILIGQTAGFTGPAGEQVKEMTRGAQLYLDAVNRAGGVYGRRIELISEDDGFDANVSKQRAHTLLTDKQVFALFLSRGTPNTEAIMSEAHAVGAPMVAPSTGASIFFDRPDPLVFVVRAKYQTEIAELVHHFETLGLKRLALVNVNDSFGKDTEAGFTTATQHLPPSTHQIVTVDRLKPNIETATAEIGKFAPNAVILACAGTTAQALAEALTKHGTVSQMATLSNNSSTAFARSLGNMARGMMVTQVMPSPVRATSPIGRELTASAKAAGVMPSYGMMEGYASAKLLVEGLKRAGKAPTRASFVAGLEAAGTIDLGGLDIRNGRNNHKGSSFVEITVIGPHGTFIKEGHHHHHH”, which “soluble on expression in E. coli” value is on record?
Answer: The value was “not soluble”.

Question: Which “soluble on expression in E. coli” value does the source give for “MYHNSSQKRHWTFSSEEQLARLRADANRKFRCKAVANGKVLPNDPVFLEPHEEMTLCKYYEKRLLEFCSVFKPAMPRSVVGTACMYFKRFYLNNSVMEYHPRIIMLTCAFLACKVDEFNVSSPQFVGNLRESPLGQEKALEQILEYELLLIQQLNFHLIVHNPYRPFEGFLIDLKTRYPILENPEILRKTADDFLNRIALTDAYLLYTPSQIALTAILSSASRAGITMESYLSESLMLKENRTCLSQLLDIMKSMRNLVKKYEPPRSEEVAVLKQKLERCHSAELALNVITKKRKGYEDDDYVSKKSKHEEEEWTDDDLVESL” here?
Answer: The value was “not soluble”.

Question: With “MAPVLGLLENEAKVKSIIRNNNLLEKKFSSFQRQCRDLSRNHALLDSCCSQVKHSATAAEEMSVSDKDVKNHQKKLHSFLAQSTDQVNSTIDKMDFFCSKGNHSLPMEMSVLSITLPYEACIEKSAKKHETMVFSIDEVSSAVQHLENEKVDVEKRQSSTGKLIFQTEKEIMKLKEEIQVNTNLESNIIQLSLEKLSSVKDSSTSENVYKAKLEEEINEARQIYEDALKQDVISQESAMMTQQLESLNELCSDLSDLNKINLTSIEKFPDCNEVCELSDELQTLEKSEAENSESIINLEASLEDIKYQNKKVRKSFDQINQLENAYIVKKEVLTRKKSAIEDVKRQIAESKITLNKLKVTVRAVERSDTPENVESKKEEAFRRLVASSTELPGPESFQRDNVRNVEKSLRFKKWNQRTTSQSSFTSDSTRSIGPIGVHYPGIKLINKDAATPTEVIRKITSELNESATSEDSTFDDDTGTTQDESGLNAFFNSPVSKEQTSMRPQFSMIAHMEKYDTMQAKKNMDKLPDNVRRESEMEHISHNYGRPSEVNRPASVSSKRHDPAASISATSEESILSGTTQDESMLNDFFNPTGTDEKLNDVEFSMTAHVAEFDNRQKAKRAAEQIKKSSSKISGKKEESVADDKSSGNSYVAESEAGFSQGSEENESMDDEDLVAPDDGGLDQTIWDGDD” as the sequence, how does the “soluble on expression in E. coli” value read?
Answer: Its value is “not soluble”.

Question: Which “soluble on expression in E. coli” value does the source give for “MGSDKIHHHHHHMRAHVTKKTLSEGLGLLERVIPSRSSNPLLTALKVEASEAGLTLSGTNLEIDLSYFVPAEVQAPQSFVIPAHLFAQIVRNLGGELVELELTGGELSVRAGGSDFKLQTGDLEAYPPLSFPTHTDVSLDAAELARALGSVRYAASNEAFQAVFRGIKLEHRPASARVVASDGYRVAIRDFPASGDGRNLIVPARSADELIRVLKDGEARFTYGEGLLSVTTDRVRMNLKLLDGEFPDYERVIPKDVKLQVTLPATALKEAVGRVAVLADKNANNRVEFLVSEGKLRLAAEGDYGRAQDTLDVVQGGAEPAMSLAFNARHVLDALGPIEGDAELLFSGSTSPAIFRASGGGDYMAVMVTLRV” here?
Answer: Its value is “not soluble”.

Question: Which “soluble on expression in E. coli” value does the source give for “MHHHHHHSSGVDLGTENLYFQSMKICSIALVGKYTKLRDCYASVFKALEHSALAINHKLNLMYIDSIDLEKITETEDPVKFHEAWQKLCKADGILVPGGFGIRGTLGKLQAISWARTKKIPFLGVCLGMQLAVIEFARNCLNLKDADSTEFRPNAPVPLVIDMPEHNPGNLGGTMRLGIRRTVFKTENSILRKLYGDVPFIEERHRHRFEVNPNLIKQFEQNDLSFVGQDVDGDRMEIIELANHPYFVGVQFHPEFSSRPMKPSPPYLGLLLAATGNLNAYLQQGCKLS” here?
Answer: The value was “soluble”.

Question: With “MKVDVDEKTYIITMANDITKLYEENKRNLHYSITDPLTGAYNRKYLNDRFDIFIGDYIVLIDLDNFKMINDYEGHNVGDKILCDFVSLLNKELINSTSIIRLGGDEFIVIFSSDVDKNYVYSQLEALRENFLKVFSKYKYLSFSYGVDTVKRNLKLTIVELDKKMYKNKEKLEHHHHHH” as the sequence, how does the “soluble on expression in E. coli” value read?
Answer: Its value is “not soluble”.

Question: Which “soluble on expression in E. coli” value does the source give for “MGVFTFQDEYTSTIAPAKLYKALVTDADIIIPKAVETIQSVEIVEGNGGPGTIKKLTFIEGGESKYVLHKIEAIDEANLGYNYSIVGGVGLPDTIEKISFETKLVEGANGGSIGKVTIKIETKGDAQPNEEEGKAAKARGDAFFKAIESYLSAHPDYN” here?
Answer: Its value is “soluble”.

Question: Which “soluble on expression in E. coli” value does the source give for “MNGGSSIKVLGLVGSPKVDGNTAKMVDAILEGAAENGAETVIYNLASLDIKGCDACHRCQETGCCAIDDDMQELYRQIEEADAVVLGSPVYMWQMTAQTKLLIDRMTAFLKPNFSSRLDHKKLILVFTQGIPDRDAFNSYFEYTAGVLYYLGFDVLETIVAAGTDNLEVAFRPRLLEKSRELGKLISASNPVSPRYRRALEHHHHHH” here?
Answer: The value was “not soluble”.

Question: For “MGSDKIHHHHHHMVSWVRGATKSLLGCSENSRRTKGNDMAVIFKGIPSIGNGLTDDTVLWRYLDTAKFLDLLHNRTLFFCRGDRFADKYEGAFTESIKHAIEEAFRKNEINSSVAEFKTRLRERVFVNCWHQSRDDSMAMWSLYGKSSAAVAITTTVGQLRDAIKLAKLPYAINIAKVEYVKHWRDPQLVFKPYSNVFAYKLKAYDYEKEVRVIIDRFHENEDISALPDGMSAAIPLETLLRSIVVCPEAAPWFVELVGDVVHKYGVSAPVNRSKLAFDPK”, which “soluble on expression in E. coli” value is on record?
Answer: Its value is “not soluble”.

Question: Which “soluble on expression in E. coli” value does the source give for “MRALALDVGLKRIGVALCIDKKIALPLDAVLRKNRNQAANEIKNLLKIHEISLLIVGIPKGGSSEEEMTRRIKHFVSLLEFDKEICFVDESGTSKEALGYGVANTRKKDGKLDSLSAFIMIKDYFALLEHHHHHH” here?
Answer: Its value is “not soluble”.

Question: Which “soluble on expression in E. coli” value does the source give for “MNIQHNLNLIQQKIETACKEENRNQNTVKLLAVSKTKPISAILSAYQAGQTAFGENYVQEGVEKIQYFESQGINLEWHFIGPLQSNKTRLVAEHFDWMQTLDRAKIADRLNEQRPTNKAPLNVLIQINISDEESKSGIQPEEMLTLAKHIENLPHLCLRGLMAIPAPTDNIAEQENAFRKMLELFEQLKQVLPNQQIDTLSMGMTDDMPSAIKCGSTMVRIGTAIFGARNYSTSQNK” here?
Answer: Its value is “not soluble”.

Question: With “MGSDKIHHHHHHMRNKIEKGVDLNLRQFIKSLGYIAGGTALLASTPWLSSCTPEKLKEIRNEKARIALIGTGSRGQYHIHNLKEIPHARIVAVCDNYAPNLQQAVELCPGAKAYTDYRKLLESADIDGVIISTPLNWHAPIVLDALAAGKHVFCEKAMARTLDECKAIYDAYQTTNQVLYFCMQRMYDEKYIKGMQMIHSGLIGDVVGMRCHWFRNADWRRPVPSPELEHQINWRLYKESSGGLMTELACHQLEVCNWAAKRMPVSIIGMGDIVYWKDGREVYDSVNVTYRYSDGTKIAYESLISNKFNGMEDQILGHKGTMEMAKGIYYLEEDHSTSGIRQLIGQVKDKVFAAIPTAGPSWRPETKMEYTPHFVIEGDINVNNGLSMIGADKDGSDIILSSFCQSCITGEKAQNVVEEAYCSTVLCLLGNQAMEEERHILFPDEYKIPYMKF” as the sequence, how does the “soluble on expression in E. coli” value read?
Answer: The value was “not soluble”.

Question: With “MGSSHHHHHHSSGLVPRGSHMKLQFNLKAYFKTSADPTPAKDAIAALFEEANSTLLTRGAPEGQGAKVTEWKLGEDRIELTLQSGRYVRVHDAIFRLRKQLAEALGKKYKIGIRGIEVESFIIKVPADHELRMLKVPYIKSMENIEGGIQLELEVGEAEMKNRVPDRILTLLEEKIEAAQYGAKAEHWNLLWQREPMEHPFKEDPTQAMMKEGWLKRGSSRGQWIHGPQSARIFRTFEKIVLEELLEPLGYREMIFPKLVTWEVWMKSGHAKGVYPEIYYVCPPQTRDPDYWEEVADYYKVTHEVPTKLIKEKIAEPIGGMCYAQCPPFWMYVAGETLPNEEIPVKVFDRSGTSHRYESGGIHGIERVDEFHRIEIVWIGTKEEVLKCAEELHDRYMHIFNDILDIEWRKARVTPWFMAQEGLLGLAEENTVGTTDYEACLPYRGPDGEWLEFQNVSINGDKYPKGFNVKLQSGDELWSGCSGVGLERWAAVFLAQKGLDPANWPEEFRNRVGEMPKGIRFL” as the sequence, how does the “soluble on expression in E. coli” value read?
Answer: The value was “soluble”.

Question: With “MSRFQTLTPASLSREAFIEAFADIYEHSPWVAEKAYDLGIDDSLNDIEGLHQRMADILLSASREAQLALINAHPDLAGKAAIRGELTASSTSEQAGAGIHECSAEEFARFTELNDAYKARFGFPFIKAVKGSNRHQILAAFEERIQHSADEEFATALAEINKIALFRLQQL” as the sequence, how does the “soluble on expression in E. coli” value read?
Answer: Its value is “not soluble”.

Question: Which “soluble on expression in E. coli” value does the source give for “MARTREFDTEAAVSRAMELFWTRGYEATSVRDLTGHLGIGQGSLYAAFGDKDGLYRAALEHYRTTLAAAALRSLEEGTDARSAIRTMLVERIRIAVDDNGRGCLAVNAACERLPEDAATRRTVRDMQDAGRDALTEVLRVAAERGEIAKRHDPHTLAAFLVTFLNGLLVSSKITPDVRALEPLVEVALAALD” here?
Answer: Its value is “not soluble”.

Question: For “MGSDKIHHHHHHMLSTGLYEDFPTLKMKINGKRIVYLDSAATTLKPKQVVKKLEEFYYNSYANVHRAVHTLAVRATTEFEETREEFAEFLGASPEEIIFTSGTTMAINLAVVSLLRSGILKEDDLVLVSLLEHHANFVPWLRLSKFHGYRIDFIRPSGRFGTLEMDDLLKHRDKNPKVVAITGLSNVTGQRIPVEELRNVFPNSIILLDGAQLIPHEPVKPKEIGVDFLAFSLHKMLGPTGVGVLYGKREVLEQMEPFLYGGEMIDRVSLEDVTFNELPYKFEAGTPNIADIVASREALRYLKETGFDSVHEKIEQLTQMALKEMMKIGGVEIYGPLDERQHGIVSFNVKGIHPHDVAHILDQEFGIAVRSGHHCAQPLMSILKEQSQIDFPNSTCRASFYIYNTEEDVKILVEGVKKVKEWFSR”, which “soluble on expression in E. coli” value is on record?
Answer: The value was “not soluble”.
